Data: US10508147B2, “Anti-nodal antibodies and methods of using same” (ANN AND ROBERT H. LURIE CHILDREN'S HOSPITAL OF CHICAGO, priority 2014, dated 2019)
Entries after “also recorded” stand apart in the source; their conditions may differ.

Key:
[1] = target: T1, rhNodal/rhCripto-1 complex (Homo sapiens, UniProt Q96S42); assay: SPR competition assay: rhNodal pre-incubated with 3D1 injected over Cripto-1-derivatized chip; assay type: binding
T1 construct: E. coli derived His238 Leu347, with an N-terminal Met; purchased R&D Systems
T1 sequence (Q96S42 238-347): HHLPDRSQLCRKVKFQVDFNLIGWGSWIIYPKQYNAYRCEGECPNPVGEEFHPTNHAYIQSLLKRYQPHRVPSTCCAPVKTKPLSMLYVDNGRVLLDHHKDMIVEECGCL
Method: Next, experiments were conducted to assess the ability of 3D1 antibodies to inhibit binding between Nodal and Cripto-1 through SPR experiments. Experiments were performed on CM5 sensor chips with immobilized Cripto-1.
The antibody at 1:1 molar ratio prevents the binding of hNodal to hCripto-1-1 by about 70%. Accordingly, the invention provides that, in one embodiment, 3D1 can be used to prevent binding between Cripto-1 and Nodal (e.g., for therapeutic uses described herein (e.g., to inhibit and/or neutralize Cripto-1-mediated Nodal signaling)).
Competition assays. Competition assays were performed using Biacore sensor chips derivatized with rhCripto-1-1. The binding between immobilized rhCripto-1-1 and rhNodal was assessed by injecting solutions of the Nodal protein at increasing concentrations. rhNodal was incubated at 5 nM with 3D1 mAb at concentrations matching 1:0.5, 1:1 and 1:2 molar ratios (protein:mAb).
SPR analyses were performed at 25° C. using HBS as running buffer. Protein immobilization was carried out following the canonical amine coupling chemistry using the surface immobilization wizard procedure, operating at 5 μL/min. […] Dissociations were monitored for at least 3 additional minutes. […]

recombinant Nodal = target: T2, recombinant Nodal (Homo sapiens, UniProt Q96S42); assay: Sandwich ELISA to detect Nodal with 3D1 as capture antibody; parameters: E. coli derived His238 Leu347, with an N-terminal Met; purchased R&D Systems; details: rabbit monoclonal anti-Nodal for detection
T2 sequence (Q96S42 238-347): T1 sequence (Q96S42 238-347)
From the text: A typical calibration curve was obtained using a sandwich ELISA assay developed to detect Nodal (detection limit 50 pg/well) (See FIG. 22). The assay used monoclonal anti-Nodal antibody (designated 3D1) to coat an ELISA dish to capture rNodal (recombinant Nodal) from solutions with different concentrations of rNodal and a second, rabbit monoclonal anti-Nodal antibody to detect the captured rNodal. The resulting captured rNodal-antibody complex was then detected with an anti-rabbit antibody conjugated to horseradish peroxidase and a QuantaRed enhanced chemifluorescent horseradish peroxidase substrate.
By epitope mapping of commercially available Nodal antibodies and 3D1 mAb, the latter was chosen as the capture antibody for coating ELISA dishes, while a rabbit monoclonal anti-Nodal (Abcam) served for detecting the bound Nodal. The immune complex was subsequently quantified using a horseradish peroxidase-conjugated anti-rabbit antibody in conjunction with QuantaRed enhanced chemifluorescent horseradish peroxidase substrate (ThermoFisher). The established sandwich ELISA assay detects Nodal as a recombinant protein in conditioned media from human embryonic stem cells and in biological fluids with a detection limit (calculated using recombinant Nodal) of […]. Human serum samples from breast cancer patients were purchased from BioOptions (Brea, Calif.).

[2] = test system: A375SM human metastatic melanoma cells; assay: A375SM orthotopic xenograft in Nude mice; assay type: in vivo
Method: Experiments were carried out to determine the in vivo effects of 3D1 mAb on primary melanoma. To this end, 500,000 C8161 cells were injected subcutaneously in Nude mice. Palpable tumors were then injected directly with either 700 μg of total 3D1 mAb or IgG control antibody (alternate day intratumoral injection of 100 μg over 14 days). Mice were then sacrificed and subcutaneous tumors harvested and processed as previously described. To evaluate the effect of 3D1 mAb in the presence of the BRAF(V600E) mutation, a third orthotopic xenograft model was established in Nude mice via subcutaneous injection of approximately 150,000 A375SM human metastatic melanoma cells. Mice were treated IP with 3D1 mAb or IgG control, as described above, or 3 mg/kg of dabrafenib.
Four micron thick, formalin fixed, paraffin embedded tissue sections were prepared and immunohistochemistry was carried out on a Dako Plus autostainer (DAKO, Inc, Carpenteria, Calif.). Following antigen retrieval and blocking steps, sections were incubated in primary antibody for 60 mins, followed by appropriate biotinylated secondary antibody (Biocare Medical, Conrad, Calif.), and then streptavidin-horseradish peroxidase (Thermo Scientific Lab Vision). Color was developed with 3,3′-diaminobenzidine substrate (Thermo Scientific Lab Vision) and sections were counterstained with hematoxylin (Biocare Medical, LLC). As a negative control, adjacent serial sections were incubated with species appropriate irrelevant IgG (Jackson ImmunoResearch Labs) at the same concentration as primary antibodies. Similar to the lung tumor burden evaluation described above, mean percentage of positive staining±SEM was determined by 2 different observers, each calculating the ratio of positive cells/total number of cells×100 for 4 separate high power fields (63× objective) from at least 2 different mice per group.

inhibition of the binding of Nodal to Cripto-1 ([1]; 3D1 mAb at 5 nM (1:1 molar ratio), rhNodal 5 nM): approximately 70% | prevention of binding of hNodal to hCripto-1 ([1]; antibody at 1:1 molar ratio, 5 nM Nodal): about 70% | detection limit for Nodal (recombinant Nodal): 50 pg/well | detection limit for Nodal (recombinant Nodal; listed as 3D1 mAb): 75 pg/well
B1: 3D1: mouse monoclonal anti-Nodal antibody raised against hNodal(44-67); light chain SEQ ID NO:1, heavy chains SEQ ID NO:2 and 3 (protein)
light: DIKMTQSPASLSASVGETVTITCRASGNIHNYLAWYQQKQGKSPQLLVYNAKTLADGVPSRFSGSGSGTQYSLKINSLQPEDFGSYYCQHFWSTPHVRCWDQAGTETEAW
heavy 1: VKLVESGGGLVKPGGSLKLSCAASGFTFSSYAMSWVRQTPEKRLEWVASISSGGCTYYPDSVKGRFTISRDNARNILYLQMSSLRSEDTAMYYCARGSMITADGNSLLLCYGLLGSRNLXHR
heavy 2: VKLVESGGGLVQPGGSMKLSCVASGFTFRNYWMSWVRQSPEKGLEWVAEIRLKSDNYAARYAESVKGKFTISRDDSKSRLYLQMNSLRAEDTGIYYCTGIRRFAYWGQGTL
modifications: not fully specified; (120)..(120) Xaa can be any naturally occurring amino acid
mean percentage (±SEM) of nuclear P-Smad2 ([2]; IHC, N=4): 28.1%±2.6% | tumor volumes ([2]; after 8 days, vs IgG control, listed as 3D1 mAb): significantly reduced; also recorded: significantly smaller
